Results reported in the supplement of paper PMC7877785.
± gives the uncertainty stated by the source.

Experiment: self-splicing fitness, log relative to wild type (ln ratio); higher = more splicing; Tetrahymena group I intron in knt gene, E. coli kanamycin selection, DiMSum; sequences stand for … in CUCUCU…GGAGGGAAAAGUUAUCAGGCAUGCACCUGGUAGCUAGUCUUUAAACCAAUAGAUUGCAUCGGUUUAAAAGGCAAGACCGUCAAAUUGCGGGAAAGGGGUCAACAGCCGUUCAGUACCAAGUCUCAGGGGAAACUUUGAGAUGGCCUUGCAAAGGGUAUGGUAAUAAGCUGACGGACAUGGUCCUAACCACGCAGCCAAGUCCUAAGUCAACAGAUCUUCUGUUGAUAUGGAUGCAGUUCACAGACUAAAUGUCGGUCGGGGAAGAUGUAUUCUUCUCAUAAGAUAUAGUCGGACCUCUCCUUAAUGGGAGCUAGCGGAUGAAGUGAUGCAACACUGGAGCCGCUGGGAACUAAUUUGUAUGCGAAAGUAUAUUGAUUAGUUUUGGAGUACUCGUGGUCG
Outline: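 Library with all eight P1ex-region intron nucleotides randomised, intron inside the knt kanamycin-resistance gene on pET-22b(+), in E. coli BL21(DE3). Cells grew overnight at 37°C or 30°C on LB agar with or without 25 μg/mL kanamycin (plus 100 μg/mL carbenicillin, 50 μM IPTG, 0.2% rhamnose), in six replicate transformations. Pooled colonies were amplicon-sequenced on Illumina HiSeq 2500. DiMSum fitness is the error-weighted combination of wild-type-normalised replicate fold changes, kanamycin versus none.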

Row | Sequence | self-splicing fitness (ln) (30 °C) | self-splicing fitness (ln) (37 °C)
1 | UGGGAGCAAUAUUACGUACG | -2.41 ± 0.26 | -2.34 ± 0.21
2 | UGGGAGCAAUAUUACGUAUA | – | -2.74 ± 0.35
3 | UGGGAGCAAUAUUACGUCGU | -2.14 ± 0.2 | -2 ± 0.46
4 | UGGGAGCAAUAUUACGUCUU | -3.74 ± 0.35 | -2.54 ± 0.3
5 | UGGGAGCAAUAUUACGUUAC | -2.73 ± 0.47 | –
6 | UGGUAGCAAUAUUACGACAC | -2.43 ± 0.32 | -1.69 ± 0.18
7 | UGGUAGCAAUAUUACGACAG | -0.598 ± 0.3 | -0.713 ± 0.38
8 | UGGUAGCAAUAUUACGAGAA | – | -1.11 ± 0.36
9 | UGGUAGCAAUAUUACGAUAA | -1.45 ± 0.21 | -0.6 ± 0.24
10 | UGGUAGCAAUAUUACGAUCA | -0.00935 ± 0.1 | 0.325 ± 0.13
11 | UGGUAGCAAUAUUACGAUCC | -0.523 ± 0.11 | -0.731 ± 0.16
12 | UGGUAGCAAUAUUACGCCUU | -0.729 ± 0.15 | 0.426 ± 0.18
13 | UGGUAGCAAUAUUACGCUGC | -2.89 ± 0.31 | -2.86 ± 0.4
14 | UGGUAGCAAUAUUACGGAGC | – | -0.765 ± 0.31
15 | UGGUAGCAAUAUUACGGCCA | -2.07 ± 0.3 | -1.94 ± 0.45
16 | UGGUAGCAAUAUUACGGCCC | -0.562 ± 0.18 | -0.000115 ± 0.21
17 | UGGUAGCAAUAUUACGGCGG | -0.708 ± 0.082 | -0.0108 ± 0.1
18 | UGGUAGCAAUAUUACGGGGU | -3.24 ± 0.43 | –
19 | UGGUAGCAAUAUUACGUGGU | -4.36 ± 0.28 | -2.7 ± 0.36
20 | UGGUAGCAAUAUUACGUUUA | -1.58 ± 0.11 | -0.847 ± 0.1

Row | Sequence | self-splicing fitness (ln) (30 °C) | self-splicing fitness (ln) (37 °C)
21 | UGUAAGCAAUAUUACGACAU | -1.44 ± 0.015 | -0.831 ± 0.034
22 | UGUAAGCAAUAUUACGACGA | -0.272 ± 0.12 | -0.249 ± 0.11
23 | UGUAAGCAAUAUUACGAGGA | -2.17 ± 0.36 | -2.61 ± 0.34
24 | UGUAAGCAAUAUUACGAUAA | -1.12 ± 0.1 | 0.257 ± 0.13
25 | UGUAAGCAAUAUUACGAUCC | -1.49 ± 0.34 | -0.943 ± 0.42
26 | UGUAAGCAAUAUUACGAUUC | – | -2.35 ± 0.26
27 | UGUAAGCAAUAUUACGCACU | -0.554 ± 0.094 | -0.349 ± 0.12
28 | UGUAAGCAAUAUUACGCCGA | -1.5 ± 0.14 | -1.63 ± 0.18
29 | UGUAAGCAAUAUUACGCCUA | -0.337 ± 0.14 | 0.331 ± 0.15
30 | UGUAAGCAAUAUUACGCGUG | -0.994 ± 0.066 | 0.0779 ± 0.079
31 | UGUAAGCAAUAUUACGCUGA | -3.08 ± 0.26 | -1.33 ± 0.16
32 | UGUAAGCAAUAUUACGGAUG | -0.704 ± 0.07 | -0.103 ± 0.095
33 | UGUAAGCAAUAUUACGGAUU | -2.59 ± 0.12 | -1.09 ± 0.12
34 | UGUAAGCAAUAUUACGGCUC | -1.94 ± 0.19 | -1.32 ± 0.29
35 | UGUAAGCAAUAUUACGUACU | -0.07 ± 0.081 | -0.136 ± 0.092
36 | UGUAAGCAAUAUUACGUAGC | – | -1.96 ± 0.45
37 | UGUAAGCAAUAUUACGUCGU | -3.66 ± 0.24 | -1.97 ± 0.18
38 | UGUAAGCAAUAUUACGUCUA | -0.00173 ± 0.09 | 0.151 ± 0.11
39 | UGUAAGCAAUAUUACGUCUU | -1.74 ± 0.093 | -0.338 ± 0.11
40 | UGUAAGCAAUAUUACGUGCA | -0.738 ± 0.12 | -0.62 ± 0.11
